Target: BAFF (PeproTech, Cat: 310-13) (UniProt Q9Y275 134-285)
Experiment: ELISA, plate coated with BAFF 1 ug/mL, HRP anti-human Fc, OD450
Experimental: BAFF (PeproTech, Cat: 310-13) was diluted to 1 μg/mL with PBS, and a 96-well plate was coated with the dilution overnight at 4° C. The plate was washed with PBST and blocked with Blocking Buffer (PBST containing 1% BSA) at 37° C. for 1 h. The plate was tapped. The test antibodies were diluted with Blocking Buffer. Incubation was performed at 37° C. for 1.5 h. The plate was washed with PBST. An HRP-mouse anti-human Fc antibody (GenScript, Cat: A01854-200) was diluted with Blocking Buffer. Incubation was performed at 37° C. for 40 min. The plate was washed with PBST. 100 μL of TMB substrate solution (Biopanda, Cat: TMB-S-003) was added, and color development was performed at 37° C. for 3 min. 100 μL of ELISA stop solution (Solarbio, Cat: C1058) was added. OD450 was measured.

EC50 (read off the curve): ~0.2 nM
B1: Telitacicept (RCT-18) (Fc fusion)
chain: SRVDQEERFPQGLWTGVAMRSCPEEQYWDPLLGTCMSCKTICNHQSQRTCAAFCRSLSCRKEQGKFYDHLLRDCISCASICGQHPKQCAYFCENKLRSPVNLPPELDKTHTCPPCPAPEAEGAPSVFLFPPKPKDTLMISRTPEVTCVVVDVSHEDPEVKFNWYVDGVEVHNAKTKPREEQYNSTYRVVSVLTVLHQDWLNGKEYKCKVSNKALPSSIEKTISKAKGQPREPQVYTLPPSRDELTKNQVSLTCLVKGFYPSDIAVEWESNGQPENNYKTTPPVLDSDGSFFLYSKLTVDKSRWQQGNVFSCSVMHEALHNHYTQKSLSLSPGK
notes: Positive control TACI-Fc; also called RC18

From patent publication US20260056186A1 (JIANGSU HENGRUI PHARMACEUTICALS, published 2026)
